# Experimental data: publication PMC5906480, “Tau Antibody Structure Reveals a Molecular Switch Defining a Pathological Conformation of the Tau Protein” (Scientific Reports, 2018)
# B1: C5.2: novel mouse monoclonal antibody that targets the pS396 tau epitope region (antibody, V domains shown)
# VH: QVQLQQSDAELVKPGASVKISCKASGYTFTDRTIHWVKQRPEQGLEWIGYIYPGDDSTKYNDMFKAKATLTADKSSNTAYMQLNSLTSDDSAVYFCARRGTMDYWGQGTSVTVSS
# VL: DVQMIQSPSSLSASLGDIVTMTCQASQDTSINLNWFQQKPGKAPKLLIYGASNLEDGVPSRFSGSRYGTDFTLTISSLEDEDMATYFCLQHTYLPFTFGSGTKLEIK
# Legend:
# [1] = molecular target: FITC-conjugated tau peptide pS396/pS404; experiment: Fluorescence polarization direct binding, pS396/pS404 peptide; settings: restated in Discussion; fluorescence polarization, Fab C5.2
# Procedure: (§1) FITC-labeled peptides used in fluorescence polarization experiments were synthesized by Biomatik (Cambridge, ON, Canada). Fab C5.2 affinity was determined using a fluorescence polarization-based direct binding assay with fluorescein isothiocyanate (FITC)-conjugated peptides (Table 1). The FITC-peptide concentration was kept constant at 300 nM while Fab C5.2 was serially diluted from 675 nM to 0.08 nM. Data was collected at 25 °C using excitation and emission wavelengths of 485 nm and 535 nm, respectively. Each experiment was done in a single 96-well plate and calculated in triplicate (buffer: 50 mM Tris, 100 mM NaCl, 0.1% pluronic F-127). The experiments were performed with a DTX 880 Multimode Detector (Beckman Coulter, Jersey City, NJ). Fluorescence data was reduced using multimode detection software and KD values were calculated in GraphPad Prism 7.0 using a nonlinear regression model.
# (§2) To accurately measure the C5.2 binding affinity, we performed fluorescence polarization experiments to determine dissociation constants (KD), using the Fab C5.2 and four differentially phosphorylated FITC-conjugated peptides (Table 1). The peptide concentration was kept constant while that of Fab C5.2 was serially diluted from 675 nM to 0.08 nM (Fig. 1d). […] In comparison with a […] IgG molecule, each Fab fragment contains a single binding site so the KD was calculated using a nonlinear model.
# [2] = tested on: FITC-conjugated tau peptide pS396; experiment: Fluorescence polarization direct binding, pS396 peptide
# Procedure: as §1, §2
# [3] = tested on: tau in Alzheimer's disease brain fractions; experiment: Western and dot blot, Alzheimer's disease brain; format: binding, human
# Procedure: (§3) Mice were euthanized by cervical dislocation. Brains were quickly removed, weighed and divided sagittally down the midline to yield two hemispheres. One hemisphere was parted from the cerebellum and hindbrain, the forebrain containing cerebral cortex and hippocampus was snap-frozen on dry ice and stored at −80 °C until use for biochemical analysis. Frontal cortices from 4 AD donors (2 males and 2 females) and 4 non-demented healthy controls (HC, 2 males and 2 females) were obtained from Cambridge Bioscience (Cambridge, UK). The brain tissue samples were fresh-frozen and stored at −80 °C until used for biochemical analysis. All donors were of Caucasian race. Age of AD donors: 76–91 years. Age of the HC donors: 57–80 years. Post-mortem delays: 3–8 hours.
# Brain tissue extraction was performed as described previously. Tissues were homogenized in 10 volumes of Tris-buffered saline containing protease and phosphatase inhibitors as follows: 50 mM Tris/HCl (pH 7.4); 274 mM NaCl; 5 mM KCl; 1% protease inhibitor mixture (Roche); 1% phosphatase inhibitor cocktail I & II (Sigma); and 1 mM phenylmethylsulfonyl fluoride (PMSF; Sigma). The homogenates were centrifuged at 27,000 × g for 20 min at 4 °C to obtain supernatant (S1) and pellet fractions. Pellets were re-homogenized in 5 volumes of high salt/sucrose buffer (0.8 M NaCl, 10% sucrose, 10 mM Tris/HCl, [pH 7.4], 1 mM EGTA, 1 mM PMSF) and centrifuged as above. The supernatants were collected and incubated with sarkosyl (1% final concentration; Sigma) for one hour at 37 °C, followed by centrifugation at 150,000 × g for one hour at 4 °C to obtain sarkosyl-insoluble pellets, referred to as P3. The P3 pellet was re-suspended in TE buffer (10 mM Tris/HCl [pH 8.0], 1 mM EDTA) to a volume equivalent to half of the original volume used for the brain homogenates. S1 and P3 fractions isolated from the individual 4 AD and 4 HC brains were pooled and used as AD pool and HC pool for western and dot blot analysis.
# (§4) Samples were boiled in 1 × LDS loading buffer and 100 mM DTT. […] Tau and pTau levels were assessed in the samples using 1 μg/mL C5.2 overnight at 4 °C. A secondary fluorophore conjugated IgG antibody was used (IRDye 680 Goat anti-mouse, LICOR biosciences) and the signal was quantified using Odyssey CLx and Image studio software (LI-COR biosciences).
# (§5) 1 μl sample of S1 and P3 isolated from 24 weeks old rTg4510 and non-transgenic littermate (non-tg) mice or from four pooled Alzheimer’s disease (AD) and healthy control (HC) brains was spotted on nitrocellulose membranes. […] Bound antibodies were detected using an enhanced chemiluminescence system (ECL PLUS kit; Perkin Elmer).
# [4] = tested on: normal tau in the soluble tau fraction (S1) from healthy control subjects; experiment: Western and dot blot, healthy control brain; format: binding, human; settings: C5.2 1 µg/mL overnight 4 °C, pool of 4 healthy control donors
# Procedure: as §3, with “Post-mortem delays: 3–8 hours.” left out
# as §4, §5
molecule,measurement,setting,value
B1,Kd,[1],15.4 nM
same,Phosphorylation state-specificity,"[2]; Discussion, ELISA and fluorescence polarization",phosphorylation state-specific with nanomolar affinity
same,Phospho-specificity,[2]; both experiments (ELISA and fluorescence polarization),phospho-specificity for pS396
same,Kd,"[2]; restated in Discussion, fluorescence polarization, Fab C5.2",14.9 nM
same,Binding to insoluble tau fraction (P3),"[3]; C5.2 1 µg/mL overnight 4 °C, sarkosyl-insoluble P3, pool of 4 AD donors",binds predominantly to an insoluble tau fraction (P3)
same,Reactivity to soluble tau fraction (S1),"[3]; C5.2 1 µg/mL overnight 4 °C, soluble S1, pool of 4 AD donors",also has reactivity to a soluble tau fraction (S1)
same,Specificity for pathological tau protein,"[3]; overall statement from blots and immunohistochemistry (Fig. 1), AD and rTg4510 vs controls",specific for pathological tau protein
same,Bands recognized in S1 and P3,"[3]; western blot, C5.2 1 µg/mL, pool of 4 AD donors",recognizes similar bands in both fractions
same,Detection of normal tau (S1),[4],not detected
